Consider 4 molecules from patent publication US9949489B2, “Methods for control of hemipteran insect stylet sheath structure formation” (The United States of America, as Represented by the …, priority 2015, dated 2018).

Assay [1] has as its system D. citri stylet sheaths (ACP SSs). The assay can be described thus: Degradation of preformed, solidified stylet sheaths by enzymes (MFC membrane or slide incubation). Set-up: species or system Diaphorina citri; key to Sheath Degradation: −: No effect apparent; +/−: inconclusive; +: apparent slight effect; ++: increased apparent effect; +++: high effect; ++++: very high effect; +++++: complete degradation of sheaths or inhibition of sheath synthesis. The following applies: for Sheath Degradation: enzyme concentration, pH and temperature per Table 4 (cellulase 1:25, pH 6.0, 60° C.); for Effect on preformed D. citri stylet sheaths: cellulase 1:25, pH 6.0, 60° C., 72 hours, Flavourzyme about 30 minutes, proteinase K 55° C. overnight. On the procedure: In order to test cellulase's effect on preformed ACP SSs, formed, solidified stylet sheaths were harvested directly from the surface of an MFC membrane (in these experiments either plastic wrap or parafilm was used) as described herein and in Morgan et al. 2013, supra. Approximately 100 psyllids were placed into an MFC for about 24 hours. The MFCs consisted of D. citri caged individually and/or in groups within 100 mm×15 mm plastic Petri dishes. A single kitchen plastic wrap layer was stretched across the top of each Petri dish to seal the Petri dish from insect escape and to provide a stylet penetrable surface for insect probing.
Several MFCs (the Petri dishes covered with kitchen plastic wrap or parafilm and containing D. citri) were placed into clear Pyrex® baking dishes with the membrane (kitchen plastic wrap or parafilm) side up, and the Pyrex® baking dish is covered with a single layer of clear kitchen plastic wrap to prevent external contaminant interactions with the membrane surface during incubation. MFCs were incubated at a temperature of about 25° C., relative humidity of about 75%, and a light:dark cycle of about 14:1. Collection of partial stylet sheaths, shaft/branching portions without the flange, was performed using deionized water applied directly to the sheath surface to wash the surface of the MFC, and then the application of approximately 100 μl of an approximately 50 mM sodium phosphate buffer at a pH of approximately 6.0 for direct harvest of partial sheaths from the membrane surface using a bent glass rod to scour the plastic wrap surface to dislodge the stylet sheaths. The sodium phosphate buffer containing dislodged sheath shafts was removed using a pipette and placed in a microcentrifuge tube (1.5 ml tube), and cellulase (Sigma #C2605, Sigma Aldrich, St. Louis, Mo.) was added by ratio at approximately 1 part cellulase to 25 parts sodium phosphate buffer (approximately 1:25 ratio). Approximately 15 μl was then transferred to a pre-cleaned glass slide (Fisher, #12-550-19, Thermo Fisher Scientific, Inc., Waltham Mass.), covered with a premium cover slip, and edges sealed using clear nail polish CG, 3INI NL #Q004 SHN ON (CoverGirl, Hunt Valley, Md.) to keep the buffer from evaporating during incubation. This slide was then placed in an approximately 60° C. incubator of about 72 hours and observed at about 24 hour intervals.
FIGS. 3A, 3B, and 3C and FIGS. 3D, 3E, and 3F are light micrograph pictures of repeated experiments representing separate treatment of two salivary sheaths. FIG. 3A and FIG. 3D are separate salivary sheaths prior to the addition of cellulase. FIG. 3B and FIG. 3E are the same sheaths, respectively, after 72 hours incubation with cellulase. FIG. 3C and FIG. 3F are the same sheaths, respectively, when gentle pressure was applied to the coverslip over the sheaths that had been incubated with cellulase for 72 hours. […] Because of the observed result with cellulase, sheath degradation experiments as described above for cellulase were performed using a number of polysaccharide-degrading enzymes and proteases. […] Both carbohydrate-degrading enzymes and proteases were effective at degrading the sheaths.
While not wishing to be bound to any particular hypothesis, based on the results of Examples 1, 2, and 3, it is hypothesized that the structure of the ACP SSs could include protein cross-links that are catalyzed by an enzyme with an oxidative role, an enzyme at least somewhat similar to a lysyl oxidase. To determine if a protein is associated with the identified glucan, proteases were tested in experiments similar to Examples 1 and 2 above. The following proteases were added individually in separate experiments (described infra) to membranes on which D. citri adults were previously allowed to first form sheaths in the absence of proteases: Flavourzyme® (a protease cocktail), carboxypeptidase W, chymopapain, bromelain, papain, ficin, licheninase, laminarinase, and β-(1→3)-D-glucanase. […]

Assay [2] concerns D. citri. The assay is described as follows: Liquid ACP diet sandwich feeding assay (MFC): inhibition of de novo stylet sheath formation. Type of assay: in vivo, Diaphorina citri. The following applies: about 24 h; cellulase approx 1 unit/μl; BAPN 100 mM; EDTA approx 2 mM; proteases per Table 5. On the procedure:
(§1) The next step was to determine if addition of cellulase to the diet of D. citri would interfere with stylet sheath formation. A D. citri diet is prepared as described by Hall, David et al., “Research toward an artificial diet for adult Asian citrus psyllid,” Annals of the Entomological Society of America 103.4:611-617 (2010). Approximately 25 D. citri were collected into polystyrene Cellstar 35 mm×10 mm dishes (Griener Bio-One, Monroe, N.C.) that were then sealed using a single layer of Parafilm® M (Pechiney Plastic Packaging Company, Chicago, Ill.). Approximately 99 μl of liquid ACP diet (e.g., diet lacking the solidifying agar component, see Hall, et. al., 2010, supra) was mixed with approximately 1 μl of cellulase (Sigma Aldrich, St. Louis, Mo.) and mixed. […]
(§2) Because many biomolecule polymerizing enzymes require divalent cations as cofactors, the effect of ethylenediaminetetraacetic acid (EDTA), a chelator of divalent cations, on ACP SS formation was tested by adding EDTA to the previously described liquid ACP diet (see Hall et al., 2010, supra). […] Uncommon bands between the liquid ACP diet containing EDTA and liquid ACP diet without EDTA (negative control) lanes were cut out and analyzed by Orbitrap (Thermo Scientific, Waltham, Mass.) protein analysis, according to manufacturer's protocol. […]

Assay [3] concerns D. citri. Described as above. Type of assay: in vivo, Diaphorina citri. Set-up: key: −: No effect apparent; +/−: inconclusive; +: apparent slight effect; ++: increased apparent effect; +++: high effect; ++++: very high effect; +++++: complete degradation of sheaths or inhibition of sheath synthesis. The following applies: enzyme in liquid ACP diet, about 24 h, 25° C., enzyme amounts and pH per Table 5 (cellulase approx 1 unit/μl). On the procedure: as §1, §2

B1: Trypsin from bovine pancreas: Serine peptidase; Sigma #T8658 (protein, UniProt P00760 24-246, looked up)
Serine protease 1: IVGGYTCGANTVPYQVSLNSGYHFCGGSLINSQWVVSAAHCYKSGIQVRLGEDNINVVEGNEQFISASKSIVHPSYNSNTLNNDIMLIKLKSAASLNSRVASISLPTSCASAGTQCLISGWGNTKSSGTSYPDVLKCLKAPILSDSSCKSAYPGQITSNMFCAGYLEGGKDSCQGDSGGPVVCSGKLQGIVSWGSGCAQKNKPGVYTKVCNYVSWIKQTIASN
Take B1: the “Sheath Degradation” value in assay [1] (D. citri preformed sheaths) is “−”. Also, the “Effect on D. citri stylet sheath formation in liquid ACP diet” value in assay [2] was “did not appear to have an inhibitory effect”. The “Inhibition of Sheath Formation” value in assay [3] is recorded as “−”.

B2: Proteinase K from Tritirachium album: Broad protease specificity; Fischer #BP1700-100 (protein, UniProt P06873 106-384, looked up)
Proteinase K: AAQTNAPWGLARISSTSPGTSTYYYDESAGQGSCVYVIDTGIEASHPEFEGRAQMVKTYYYSSRDGNGHGTHCAGTVGSRTYGVAKKTQLFGVKVLDDNGSGQYSTIIAGMDFVASDKNNRNCPKGVVASLSLGGGYSSSVNSAAARLQSSGVMVAVAAGNNNADARNYSPASEPSVCTVGASDRYDRRSSFSNYGSVLDIFGPGTSILSTWIGGSTRSISGTSMATPHVAGLAAYLMTLGKTTAASACRYIADTANKGDLSNIPFGTVNLLAYNNYQA
As for B2, the “Sheath Degradation” value in assay [1] (D. citri preformed sheaths) is “+++++”. The “Effect on preformed D. citri stylet sheaths” value in assay [1] is given as “completely dissolves”.

B3: Papain from papaya latex: Cysteine peptidase; Sigma #P5306 (protein, UniProt P00784 134-345, looked up)
Papain: IPEYVDWRQKGAVTPVKNQGSCGSCWAFSAVVTIEGIIKIRTGNLNEYSEQELLDCDRRSYGCNGGYPWSALQLVAQYGIHYRNTYPYEGVQRYCRSREKGPYAAKTDGVRQVQPYNEGALLYSIANQPVSVVLEAAGKDFQLYRGGIFVGPCGNKVDHAVAAVGYGPNYILIKNSWGTGWGENGYIRIKRGTGNSYGVCGLYTSSFYPVKN
Turning to B3, the “Sheath Degradation” value in assay [1] (D. citri preformed sheaths) is “++”. The “Effect on D. citri stylet sheath formation in liquid ACP diet” value in assay [2] is recorded as “capable of inhibiting the formation of ACP SSs”. Also, in assay [3], the “Inhibition of Sheath Formation” value is reported as “++++”.

B4: Amyloglucosidase from Aspergillus niger: Hydrolyses α-D-(1-4), α-D-(1-6) and α-D-(1-3) glucosidic bonds of oligosaccharides; Sigma #A7420 (protein, UniProt P69328 25-640, looked up)
Glucoamylase: ATLDSWLSNEATVARTAILNNIGADGAWVSGADSGIVVASPSTDNPDYFYTWTRDSGLVLKTLVDLFRNGDTSLLSTIENYISAQAIVQGISNPSGDLSSGAGLGEPKFNVDETAYTGSWGRPQRDGPALRATAMIGFGQWLLDNGYTSTATDIVWPLVRNDLSYVAQYWNQTGYDLWEEVNGSSFFTIAVQHRALVEGSAFATAVGSSCSWCDSQAPEILCYLQSFWTGSFILANFDSSRSGKDANTLLGSIHTFDPEAACDDSTFQPCSPRALANHKEVVDSFRSIYTLNDGLSDSEAVAVGRYPEDTYYNGNPWFLCTLAAAEQLYDALYQWDKQGSLEVTDVSLDFFKALYSDAATGTYSSSSSTYSSIVDAVKTFADGFVSIVETHAASNGSMSEQYDKSDGEQLSARDLTWSYAALLTANNRRNSVVPASWGETSASSVPGTCAATSAIGTYSSVTVTSWPSIVATGGTTTTATPTGSGSVTSTSKTTATASKTSTSTSSTSCTTPTAVAVTFDLTATTTYGENIYLVGSISQLGDWETSDGIALSADKYTSSDPLWYVTVTLPAGESFEYKFIRIESDDSVEWESDPNREYTVPQACGTSTATVTDTWR
In the case of B4, in assay [1] (D. citri preformed sheaths), the “Sheath Degradation, remark in words” value is “Sheaths swell” and the “Sheath Degradation” value is “++”. For the same molecule, the “Effect on preformed D. citri stylet sheaths” value in assay [1] was “adversely impact stylet sheath integrity”.
